PMC11612273 (2024)
Substitutions are numbered along the chain they refer to. In names and notes the source's numbering stands.

B1: PSKR1JK^Y843F (phospho-mutated) (domain or fragment)
chain: VRASSRKVVDQEKELDASNRELEDLGSSLVIFFHNKENTKEMCLDDLLKCTDNFDQSNIVGCGGFGLVYKAILRDGRKVAIKRLSGDYGQMEREFQAEVESLSRAQHPNLVHLQGYCKYRTDRLLIYSYMENGSLDYWLHEKVDGPALLDWDLRLQIAQGAARGLAFLHLACEPHILHRDIKSSNILLDENFEAHLADFGLARIIRPYDTHVTTDVVGTLGYIPPEYGQASVATYKGDVYSFGVVLLELLTCKRPMDPCKPRASRDLISWVIQMKKQKRETEVFDPLIYDKQHAKEMLLVLEIACLCLHESPKIRPSSQQLVTWLDNINTPPDVHVF
B2: PSKR1JK^T890A (phospho-mutated) (domain or fragment)
chain: B1 chain with F167Y, T214A
B3: PSKR1JK, wild type (ligand of the MST) (domain or fragment)
chain: B1 chain with F167Y
B4: BRAKJK, wild type (ligand of the MST) (domain or fragment)
chain: MPGRLVCGDSIETDKQLLLNLKSFLKEQNPVDKGFKYNHWNPTDLSPCRWPGISCTTSINRVTGIDLSESNLAGKLFNNFSAMTELNSLDLSKNTFSESIPSDLGWCRNLKFLNLSHNIIVGDLNLTGLNKLEVLDLTMNRIHGLTIPEICDNLAVANISNNNFTSESGFEFSHCKKLKYLDLSYNYLTGNLSFGLDMLNMFSASHNNLSGSLPSWIFTQNCSLQGLDLSENRFFGELPTSIANCKRLVELNLWGNSFSGSIPRGIGSVHSLKELCLGSNNFSSDVPDTLSGLNKLVFLDLSRNNFGGEIQEIFGQLTQVRFLVLHGNSYTGGIVSSGIPNLVNLSRLDLSDNHFSGPLPVEISEMKGLEFLILAHNQFSGNIPSEYGDLTALQAVDLSSNRINGSIPPSFGKLRSLLWLMLANNSLSGEIPSELGNCSSLLWLNLANNQLTGPIPPQLASIGADPMLTFLLNRGKEKLTASPGDCFAMRRWIPADYPPFSFIYPLLTGKSCRILGDKLFMGDGLMPLCEPGSNVRKNQVPGYIQLSDNKLSGEIPPEISNMKKMSMMHLGANEFSGRLPSEIGQLHLVVLNVSQNKFSGEIPKQIGHLKCLLNLDLSFNNFSGPFPVSFSNLHDLSKFNISYNQYIYGAVPETGQLLTFDKSSFLGNPLLRLPSFMHNSKNNTERNTNDTHKKPKKVGALLVIVVLVLAFLVCGVMSLVVCLLIKVPRGSAGILLEDTEGRHDSPSSTNASSSRGSDDVKVIRLDRTSFTHSDILKATWNFSNDRIIGRGGFGIVYRGVLPDGRDVAVKKLQREGIEGEREFRAEMEALSGNGSGWPHPNLVTLYGWCLDGSEKLLVYEYMEGGTLEDFITDRTRFTWKCRIQAAIDVARALVYLHHDCYPCIVHRDVKANNVLLDKDGRAKVTDFGLARVMISEHTHVSTMVAGTIGYVAPEYGQIMQATTKGDVYSYGVLAMELATGRHAIDGGEECLVEWATRVMGDGRKGFTRAIIPDALLVPGLVEGAEEMYELLRIGIRCTAETPHDRPNMKQVLDMLISVPSSQKGSSRSFGSSRSTSPLL
B5: BRAKJK^Y1048F (phospho-dead) (domain or fragment)
chain: KVPRGSAGILLEDTEGRHDSPSSTNASSSRGSDDVKVIRLDRTSFTHSDILKATWNFSNDRIIGRGGFGIVYRGVLPDGRDVAVKKLQREGIEGEREFRAEMEALSGNGSGWPHPNLVTLYGWCLDGSEKLLVYEYMEGGTLEDFITDRTRFTWKCRIQAAIDVARALVYLHHDCYPCIVHRDVKANNVLLDKDGRAKVTDFGLARVMISEHTHVSTMVAGTIGYVAPEYGQIMQATTKGDVYSYGVLAMELATGRHAIDGGEECLVEWATRVMGDGRKGFTRAIIPDALLVPGLVEGAEEMFELLRIGIRCTAETPHDRPNMKQVLDMLISVPSSQKGSSRSFGSSRSTSPLL
B6: BRAKJK^T1027A (phospho-dead; printed BRAKJK^T1024A in the results) (domain or fragment)
chain: B5 chain with T282A, F303Y

Molecular target: T1, GST-BRAKJK (tomato (Solanum lycopersicum), labeled with RED-NHS)
T1 chain: B5 chain with F303Y
Test: MST

Binder	Kd
B1	1800 nM
B2	2270 nM
B3	171 nM

Molecular target: T2, GST-PSKR1JK (tomato (Solanum lycopersicum), UniProt A0A3Q7E8N4 1-1013, labeled with RED-NHS)
T2 chain: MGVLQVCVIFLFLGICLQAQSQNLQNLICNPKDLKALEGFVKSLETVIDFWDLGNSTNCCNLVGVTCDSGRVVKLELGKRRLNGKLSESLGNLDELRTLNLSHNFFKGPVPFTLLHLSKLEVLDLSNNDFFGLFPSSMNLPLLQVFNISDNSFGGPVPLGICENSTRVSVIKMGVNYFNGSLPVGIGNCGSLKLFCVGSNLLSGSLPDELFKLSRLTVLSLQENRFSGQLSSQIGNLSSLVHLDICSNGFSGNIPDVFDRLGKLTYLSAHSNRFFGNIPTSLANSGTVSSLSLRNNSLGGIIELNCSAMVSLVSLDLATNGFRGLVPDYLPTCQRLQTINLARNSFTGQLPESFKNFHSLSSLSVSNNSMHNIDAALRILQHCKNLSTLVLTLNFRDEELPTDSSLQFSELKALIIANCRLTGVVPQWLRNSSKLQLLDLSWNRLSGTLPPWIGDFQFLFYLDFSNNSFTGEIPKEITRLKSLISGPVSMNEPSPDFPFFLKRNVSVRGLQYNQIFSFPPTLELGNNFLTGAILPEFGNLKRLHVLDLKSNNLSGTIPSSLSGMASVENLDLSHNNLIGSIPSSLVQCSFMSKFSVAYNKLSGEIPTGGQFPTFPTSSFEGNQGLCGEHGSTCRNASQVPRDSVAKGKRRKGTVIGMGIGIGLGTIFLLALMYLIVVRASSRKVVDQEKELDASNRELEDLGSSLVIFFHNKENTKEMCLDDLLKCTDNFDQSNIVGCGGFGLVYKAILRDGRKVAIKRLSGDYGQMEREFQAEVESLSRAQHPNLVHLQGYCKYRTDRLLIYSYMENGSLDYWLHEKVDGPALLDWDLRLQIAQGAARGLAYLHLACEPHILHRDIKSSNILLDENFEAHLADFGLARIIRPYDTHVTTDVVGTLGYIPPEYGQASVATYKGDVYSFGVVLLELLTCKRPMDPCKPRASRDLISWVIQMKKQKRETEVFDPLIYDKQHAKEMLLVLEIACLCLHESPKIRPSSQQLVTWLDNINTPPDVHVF
Test: MST

Binder	Kd
B4	196 nM
B5	6900 nM
B6	2430 nM
